Test results as given in article doi:10.1101/637298.

T1: hZFY full-length (13-finger construct) (human, UniProt P08048 408-768)
T1 sequence: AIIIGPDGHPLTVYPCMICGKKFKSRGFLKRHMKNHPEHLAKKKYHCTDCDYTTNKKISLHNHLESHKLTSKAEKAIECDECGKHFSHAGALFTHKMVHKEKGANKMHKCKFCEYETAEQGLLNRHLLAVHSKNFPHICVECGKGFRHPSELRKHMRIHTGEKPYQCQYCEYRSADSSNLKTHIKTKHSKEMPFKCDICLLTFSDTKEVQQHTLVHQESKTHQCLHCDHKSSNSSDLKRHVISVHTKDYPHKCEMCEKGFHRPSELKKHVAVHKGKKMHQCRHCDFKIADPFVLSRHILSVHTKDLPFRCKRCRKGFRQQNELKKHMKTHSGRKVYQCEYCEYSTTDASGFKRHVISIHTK

B1: S.S.S. (long) FAM probe (dsDNA)
DNA 1: ACCTGGCCTAGTCGTTTTTGAGATCTTCATCAATTGCCGCATC
DNA 2: GATGCGGCAATTGATGAAGATCTCAAAAACGACTAGGCCAGGT
B2: S.S.N. FAM probe (dsDNA)
DNA 1: ACCTGGCCTAGTCGTTGCCCAGAT
DNA 2: ATCTGGGCAACGACTAGGCCAGGT

Assays:
[1] = target: T1, hZFY full-length (13-finger construct); assay: fluorescence anisotropy dissociation
[2] = target: T1, hZFY full-length (13-finger construct); assay: fluorescence anisotropy dissociation; remark: listed apart in the source

Binder | binding result [1] | binding signal [2]
B1 | binds | 
B2 |  | ~2 fold shorter lifetime than SSS
